Values quoted from earlier work as cited in US20250304973A1, “HIGH-AFFINITY THROMBIN APTAMERS AND METHODS OF USE” (Ayass Bioscience LLC, priority 2024, published 2025).

Conditions: reversal of dabigatran

B1: Idarucizumab: a monoclonal antibody that binds to dabigatran and neutralizes its anticoagulant properties (antibody, chains of the INN, looked up, V domains shown)
VH: QVQLQESGPGLVKPSETLSLTCTVSGFSLTSYIVDWIRQPPGKGLEWIGVIWAGGSTGYNSALRSRVSITKDTSKNQFSLKLSSVTAADTAVYYCASAAYYSYYNYDGFAYWGQGTLVTVSS
VL: DVVMTQSPLSLPVTLGQPASISCKSSQSLLYTDGKTYLYWFLQRPGQSPRRLIYLVSKLDSGVPDRFSGSGSGTDFTLKISRVEAEDVGVYYCLQSTHFPHTFGGGTKVEIK
modifications: Fab
time to reversal of anticoagulant effect: this in ~2-4 hours
